{"source": "paper PMC4839367", "biological_target": "Ad5D24 oncolytic adenovirus (viral particle, capsid) (human adenovirus serotype 5) (UniProt P04133)", "sequence (P04133 whole entry, looked up)": "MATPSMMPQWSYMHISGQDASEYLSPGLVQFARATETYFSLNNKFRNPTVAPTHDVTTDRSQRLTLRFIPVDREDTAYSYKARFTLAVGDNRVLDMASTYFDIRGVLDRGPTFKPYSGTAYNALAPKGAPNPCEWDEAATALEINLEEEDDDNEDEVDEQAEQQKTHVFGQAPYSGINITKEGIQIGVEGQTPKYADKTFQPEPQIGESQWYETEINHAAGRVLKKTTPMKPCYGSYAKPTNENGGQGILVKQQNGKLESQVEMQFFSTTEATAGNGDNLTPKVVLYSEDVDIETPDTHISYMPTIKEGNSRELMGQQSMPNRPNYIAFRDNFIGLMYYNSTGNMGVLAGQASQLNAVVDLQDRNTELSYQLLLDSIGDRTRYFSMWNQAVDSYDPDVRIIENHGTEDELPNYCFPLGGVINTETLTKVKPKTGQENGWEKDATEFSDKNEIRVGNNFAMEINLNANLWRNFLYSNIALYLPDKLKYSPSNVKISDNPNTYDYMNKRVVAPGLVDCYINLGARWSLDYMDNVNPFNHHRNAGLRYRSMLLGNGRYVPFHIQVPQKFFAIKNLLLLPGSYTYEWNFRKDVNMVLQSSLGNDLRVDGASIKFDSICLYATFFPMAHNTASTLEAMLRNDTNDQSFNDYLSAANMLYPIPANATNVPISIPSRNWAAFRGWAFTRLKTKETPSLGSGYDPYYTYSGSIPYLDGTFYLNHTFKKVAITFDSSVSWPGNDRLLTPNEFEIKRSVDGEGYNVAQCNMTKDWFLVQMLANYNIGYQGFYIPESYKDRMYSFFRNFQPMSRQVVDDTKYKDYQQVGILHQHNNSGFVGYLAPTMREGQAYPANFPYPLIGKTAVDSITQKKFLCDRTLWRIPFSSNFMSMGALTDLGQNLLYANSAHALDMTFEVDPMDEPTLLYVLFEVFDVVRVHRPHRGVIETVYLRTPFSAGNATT", "experiment": "SPR", "data": [{"substance": "polyK-SIINFEKL (peptide)", "values": [{"measurement": "Kd", "result": 2880, "unit": "nM"}]}]}
